The target of the series is Nucleocapsid protein (N) (SARS-CoV-2, UniProt P0DTC9 1-419). In words: EMSA; no sdAb; Hill fixed at 5. The conditions noted are these: protein: recombinant, tags: His6 or His6-MBP N-terminal fusion vector, TEV cleavage, chain copies: 2. (In general: A gel shift assay detects complexes by their altered migration in electrophoresis.)

A word on the Kd: it is the equilibrium constant for the complex coming apart.

As to CACUGAC (ssRNA) [7mer ssRNA], under “label: 5'-FAM, single strand”, the Kd is 560 ± 60 nM.

B1: 7mer dsRNA (dsRNA)
RNA 1: CACUGAC
RNA 2: GUCAGUG
Regarding B1, the Kd (label: 5'-FAM on strand 1, blunt) worked out at 480 ± 30 nM.

The values are drawn from publication PMC8351461.
